The labels stand for the following.
B1: PRO3732 (54-21-H03-sc01 A67G_S68G) (antibody)
chain: DIQMTQSPSSLSASVGDRVTITCQASESIYSSLAWYQQKPGKAPKLLIYLGGTLASGVPSRFSGSGSGTDFTLTISSLQPEDFATYYCQSTDYTTSTHRNSFGTGTKVTVLGGGGGSGGGGSGGGGSGGGGSEVQLVESGGGLVQPGGSLRLSCAASGFSFSTTYYMCWVRQAPGKGLEWIGCTNTASSVRTYYATWAKGRFTISRDNSKNTVYLQMNSLRAEDTAVYYCARDMGFADYALNLWGQGTLVTVSS
B2: PRO1922 (54-21-H03-sc01) (antibody)
chain: B1 chain with G51A, G52S
B3: PRO3733 (54-32-A07-sc06 G51C_T141C A67G_S68G) (antibody)
chain: ALQMTQSPSSLSARVGDRVTIKCQASQSISNYLAWYQQKPGKPPKFLIYDGGDLASGVPSRFSGSGSGRDFTLTISSLQPEDFATYYCQQVYDSNNVENVFGCGTKVTVLGGGGGSGGGGSGGGGSGGGGSQSQLVESGGGLVQPGGSLRLSCAVSGFSLSSYAMGWVRQAPGKCLEYIGYISKIGTTYYASWAKGRFTISKDNSKNTVYLQMNSLRAEDTAVYFCARGSSSGGYLDDGFDPWGQGTLVTVSS
B4: PRO2309 (54-32-A07-sc06 G51C_T141C) (antibody)
chain: B3 chain with G51A, G52S
B5: PRO2062 (55-39-G02-sc02) (antibody)
chain: AQQLTQSPSSLSASVGDRVTITCQASQNVWNNNYLSWFQQKPGKPPKLLIVTASTLASGVSSRFSGSGSGTDFTLTISSLQPEDFATYYCAGGFSGEIRAFGTGTKVTVLGGGGGSGGGGSGGGGSGGGGSQSQLVESGGGLVQPGGSLRLSCAVSGLSLSRNAMSWVRQAPGKGLEWIGIILTSGSTYYASWAKGRFTISKDNSKNTVYLQMNSLRAEDTAVYFCVRGIASSSLKSFWGQGTLVTVSS
B6: PRO3734 (55-39-G02-sc02 A67G_S68G) (antibody)
chain: B5 chain with A53G, S54G
B7: PRO4139 (55-38-D07-sc09 A67G_S68G) (antibody)
chain: DVQMTQSPSSLSASVGDRVTITCRASENIYSGLAWYQQKPGKPPKLLIYRGGTLASGVSSRFSGSGSGTDFTLTISSLQPEDFATYYCQGGYYSSSSTYIAFGTGTKVTVLGGGGGSGGGGSGGGGSGGGGSQSVVESGGGLVQPGGSLRLSCAVSGFDLSSYAVSWVRQAPGKGLEWIGIIYPRANTYYASWAKGRFTISKDNSKNTVYLQMNSLRAEDSAVYFCARDRYDSGAYLYTTYFNLWGQGTLVKVSS
B8: PRO4135 (55-38-D07-sc09) (antibody)
chain: B7 chain with G51A, G52S
B9: PRO4143 (55-38-D07-sc09 G51C A67G_S68G_T141C) (antibody)
chain: B7 chain with T104C, G175C
B10: PRO2060 (55-38-D07-sc02) (antibody)
chain: VQMTQSPSSLSASVGDRVTITCRASENIYSGLAWYQQKPGKPPKLLIYRASTLASGVSSRFSGSGSGTDFTLTISSLQPEDFATYYCQGGYYSSSSTYIAFGTGTKVTVLGGGGGSGGGGSGGGGSGGGGSQSQVVESGGGLVQPGGSLRLSCAVSGFDLSSYAVSWVRQAPGKGLEWIGIIYPRANTYYASWAKGRFTISKDNSKNTVYLQMNSLRAEDTAVYFCARDRYDSGAYLYTTYFNLWGQGTLVTVSS
B11: PRO3735 (55-38-D07-sc02 A67G_S68G) (antibody)
chain: DVQMTQSPSSLSASVGDRVTITCRASENIYSGLAWYQQKPGKPPKLLIYRGGTLASGVSSRFSGSGSGTDFTLTISSLQPEDFATYYCQGGYYSSSSTYIAFGTGTKVTVLGGGGGSGGGGSGGGGSGGGGSQSQVVESGGGLVQPGGSLRLSCAVSGFDLSSYAVSWVRQAPGKGLEWIGIIYPRANTYYASWAKGRFTISKDNSKNTVYLQMNSLRAEDTAVYFCARDRYDSGAYLYTTYFNLWGQGTLVTVSS
B12: PRO4125 (37-20-B03 sc17 A67G_F68G) (antibody)
chain: DIQMTQSPSSLSASVGDRVTITCQASQSIGTYLAWYQQKPGKPPKLLIYRGGILASGVPSRFSGSGSGTDFTLTISSLQPEDFATYYCQSNFYSDSTTIGPNAFGTGTKVTVLGGGGGSGGGGSGGGGSGGGGSQSLVESGGGLVQPGGSLRLSCAASGFSFNSDYWISWVRQAPGKGLEWIASIYGGSSGNTQYASWAQGRFTISKDNSKNTVYLQMNSLRAEDTAVYFCARGYVDYGGATDLWGQGTLVTVSS
B13: PRO1347 (37-20-B03 sc09-IF) (antibody)
chain: IQMTQSPASLSASVGDRVTITCQASQSIGTYLAWYQQKPGKPPKLLIYRAFILASGVPSRFSGSGSGTDFTLTISSLQPEDFATYYCQSNFYSDSTTIGPNAFGTGTKVTVLGGGGGSGGGGSGGGGSGGGGSEVQLVESGGGLVQPGGSLRLSCAASGFSFNSDYWIYWVRQAPGKGLEWIACIYGGSSGNTQYASWAQGRFTISRDNSKNTVYLQMNSLRAEDTAVYFCARGYVDYGGATDLWGQGTLVTVSS
B14: PRO1434 (33-03-G02 Q108A_G109A) (antibody)
chain: DIQMTQSPSSLSASVGDRVTITCQASQSINDYLAWYQQKPGKAPKLLIYKASTLASGVPSRFSGSGSGTDFTLTISSLQPEDFATYYCQAAYIITDIDNVFGTGTKVTVLGGGGGSGGGGSGGGGSGGGGSQVQLQESGPGLVKPSETLSLTCKVSGFSFSSGYDMCWIRQPPGKGLEWIGCVVAGSVDITYYASWAKGRVTISVDSSKNQFSLKLSSVTAADTAVYYCARKDAYSDAFNLWGQGTLVTVSS
B15: PRO3725 (33-03-G02 Q108A_G109A A67G_F68G) (antibody)
chain: B14 chain with A51G, S52G

The source of these data is patent US20260327324 (published 2026).

Changes are numbered by the printed parent chain. Names may count otherwise.

The Kd is the free concentration of one partner at which half of the binding sites on the other are occupied at equilibrium, for simple one-to-one binding. Lower therefore signals higher affinity.

In one assay the target is T1, MSLN (UniProt Q13421).
T1 chain: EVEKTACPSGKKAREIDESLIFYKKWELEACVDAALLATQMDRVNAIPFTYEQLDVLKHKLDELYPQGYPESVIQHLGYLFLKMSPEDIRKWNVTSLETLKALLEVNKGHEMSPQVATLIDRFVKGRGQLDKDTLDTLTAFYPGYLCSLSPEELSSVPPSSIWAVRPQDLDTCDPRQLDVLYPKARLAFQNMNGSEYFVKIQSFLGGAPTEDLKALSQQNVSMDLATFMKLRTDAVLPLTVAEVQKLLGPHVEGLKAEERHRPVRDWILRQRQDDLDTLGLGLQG
The assay can be described thus: SPR.
The molecule B1 displayed an equilibrium dissociation constant (Kd) of 0.172 nM.

B2 displayed a dissociation constant (Kd) of 0.151 nM. B3: the dissociation constant Kd was found to be 1.58 nM. In turn, B4 came in with a dissociation constant (Kd) of 0.561 nM.

A further assay deals with ROR1 (UniProt Q01973). The assay can be described thus: SPR. On the technique in general: In SPR one partner is held on a chip, and binding of the other changes the refractive index at the surface.
Sequence of ROR1 (Q01973 30-403): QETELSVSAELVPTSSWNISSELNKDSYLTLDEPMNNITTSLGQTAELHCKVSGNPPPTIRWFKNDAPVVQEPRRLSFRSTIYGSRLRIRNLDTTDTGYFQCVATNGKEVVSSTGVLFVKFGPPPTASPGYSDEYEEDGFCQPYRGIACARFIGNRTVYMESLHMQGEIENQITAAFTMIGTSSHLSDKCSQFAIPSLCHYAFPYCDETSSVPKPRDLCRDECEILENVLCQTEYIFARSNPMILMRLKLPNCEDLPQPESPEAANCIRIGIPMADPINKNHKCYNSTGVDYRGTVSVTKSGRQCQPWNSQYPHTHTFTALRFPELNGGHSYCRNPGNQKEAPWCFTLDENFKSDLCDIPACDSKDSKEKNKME
In turn, B5 displayed a Kd of 0.108 nM. Turning to B6, the Kd worked out at 0.12 nM. On to B7, for which the dissociation constant Kd worked out at 0.212 nM. This Kd lies about 1.8-fold higher than the previous one. For the molecule B8, the equilibrium dissociation constant (Kd) came to 0.122 nM.

In turn, B9 came in with an equilibrium dissociation constant (Kd) of 0.631 nM. B10: binding was characterised by a dissociation constant (Kd) of 0.119 nM. Compared with the last molecule, the Kd is about 5.3-fold lower. In turn, B11 came in with a Kd of 0.336 nM.

The target in the next assay is PD-L1 (UniProt Q9NZQ7). The assay can be described thus: SPR.
Sequence of PD-L1 (Q9NZQ7 19-238): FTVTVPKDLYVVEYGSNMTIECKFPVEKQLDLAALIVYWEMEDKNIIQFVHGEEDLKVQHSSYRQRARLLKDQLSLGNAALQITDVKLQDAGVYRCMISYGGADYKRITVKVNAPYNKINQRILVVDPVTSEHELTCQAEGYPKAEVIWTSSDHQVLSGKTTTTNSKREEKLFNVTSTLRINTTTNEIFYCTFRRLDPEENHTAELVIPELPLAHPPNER
B12 returned a Kd of 0.196 nM. Same read-out and setting: with B13 the figure was 0.0109 nM; with B14, 491 nM.

B15 registered a Kd of 491 nM. That is a sub-micromolar value.
